According to publication PMC4831847:

System: hPBV RdRP WT (human picobirnavirus strain Hy005102)
Experiment: EMSA
Conditions: 50 mM Tris-HCl pH 7.5, 50 mM KCl, 1 mM NaN3, 5 mM beta-mercaptoethanol, 10% glycerol, 1 nM 32P-RNA, 30 min at room temperature, 15% native PAGE in ice bath

GGACUAACAGUCCCAACUGC [PBV 3'-(+)UTR] showed a binding signal (fold lower affinity than 5'-(+)UTR) of 10.

CACACACACACACACACACA [CA repeat 20-mer] was tested, and the binding signal (fold lower affinity than 5'-(+)UTR) was 10.

For PBV2+ full-length, the binding signal (fold stronger than PBV2+(Δ1-645)) was 10.

PBV2+(Δ1-645) was tested, and the binding signal (fold weaker than full-length PBV2+) was 10.

Work on GUAAAAUUUUCGAAUUUUAU [PBV 5'-(+)UTR] yielded a binding signal (scale: fold higher affinity than 3'-(+)UTR or CA repeat) of 10.
